Source: the supplement of paper PMC10567573

B1: ADAMTSL2 (parent)
chain: KKPPEESTCFERPCFKWYTSPWSE
B2: WDR88 (parent)
chain: LLTITKAHSNAISNCCFTFSGHFL

Variants of: B1
Test: protein stability index of a GFP-peptide fusion (GPS, HEK-293T) (PSI 1-6); higher = more stable
Conditions: c terminus: a fixed tail appended
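Also: lentivirally expressed fusions sorted by FACS into six bins by GFP to DsRed ratio, PSI derived from sequencing read proportions per bin multiplied by bin number.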

Protein stability index of substitutions, site by site:
T8: L 3.01 | W 1.7 | Q 2.79 | F 1.74 | P 2.59 | V 2.28 | R 2.14 | E 2.69 | G 2.37 | C 2.17 | K 2.89 | Y 1.68 | D 2.61 | A 2.75 | N 2.56 | S 2.77 | H 2.29 | I 2.32 | M 2.45
E6: D 2.8 | C 2.44 | T 1.84 | I 1.87 | Y 1.97 | G 2.57 | N 2.08 | W 1.87 | H 2.06 | V 2.65 | F 1.9 | Q 2.06 | R 2.05 | K 2.55 | M 1.9 | A 1.91 | S 1.82 | P 2.05 | L 2.07
P3: E 3.04 | A 2.83 | V 2.16 | Q 2.67 | H 1.84 | N 2.94 | D 2.77 | L 2.26 | F 2 | K 2.18 | M 2.29 | G 2.34 | I 1.93 | W 2.6 | Y 1.88 | T 2.21 | R 2.46 | C 2.08 | S 2.29
P4: R 2.49 | Q 2.72 | I 2.26 | S 2.21 | D 2.69 | W 1.75 | H 1.94 | T 3 | G 3.23 | C 1.95 | E 2.4 | K 2.49 | M 2.29 | Y 2.48 | A 2.93 | V 2.77 | N 2.19 | F 1.89 | L 2.04
E11: R 1.75 | P 2.46 | H 2.27 | G 1.87 | C 1.49 | I 1.9 | Q 2.27 | A 2.59 | S 2.82 | N 2.98 | M 1.98 | D 2.38 | F 2.19 | K 2.11 | L 1.88
E5: V 2.48 | L 2.33 | I 2.16 | F 1.88 | R 2.02 | D 2.08 | S 2.3 | M 1.47 | W 2.27 | Y 2.01 | K 1.45 | G 2.2 | N 2.29 | P 1.82 | Q 2 | C 2.32 | A 1.92 | H 2.09 | T 1.67
F10: E 2.9 | K 3.55 | N 2.45 | C 2.14 | S 3.46 | L 2.81 | P 3.19 | W 2.09 | G 2.71 | T 3.19 | D 2.89 | H 2.99 | A 2.51 | M 2.83 | Q 2.54 | Y 2.06 | V 2.86 | I 2.81
S7: Q 2.58 | H 2.51 | A 2.31 | D 2.4 | T 2.39 | W 1.66 | P 2.21 | K 2.21 | C 2.66 | M 2.08 | V 2.42 | Y 2.64 | E 2.47 | R 2.19 | I 2.28 | F 2.11 | L 1.39 | N 2.24 | G 2.8
K1: W 1.75 | P 2.24 | Y 1.83 | I 1.71 | C 1.89 | D 2.67 | A 2.38 | M 2.48 | F 2.59 | T 2.52 | H 2.33 | V 2.29 | S 2.37 | Q 2.58 | G 2.34 | E 3.08 | N 3.12 | L 2.35 | R 2.88
C9: N 2.18 | M 2.8 | E 3.33 | W 2.04 | G 2.63 | S 2.35 | V 2.82 | I 2.25 | Y 2.54 | T 2.84 | L 2.05 | R 2.52 | Q 3.34 | D 2.97 | F 2.3 | P 2.7 | H 2.36 | K 2.69 | A 2.43
K2: I 1.78 | H 1.96 | N 2.94 | D 3.01 | S 2.15 | G 2.73 | W 2.39 | M 2.72 | C 2.75 | E 2.79 | V 2.04 | Y 2.36 | Q 2.29 | F 2.13 | R 2.61 | A 3.16 | T 2.66 | L 2.73 | P 2.27

Variants of: B2
Test: as above
Conditions: c terminus: a fixed tail appended

Protein stability index: each site, then its substitutions
T18: M 2.19 | K 2.33 | H 2.53 | G 3.29 | L 2.92 | C 2.47 | D 2.03 | E 1.84 | A 3.52 | N 3.85 | V 3.09 | R 2.93 | W 2.86 | I 2.34 | F 2.9 | Y 2.76 | S 2.58 | P 2.54
G21: H 2.53 | Q 2.92 | A 2.88 | M 3.69 | P 3 | T 3.34 | V 2.89 | K 2.77 | I 2.97 | N 2.42 | D 2.75 | R 1.97 | C 2.31 | F 2.41 | L 2.46 | E 2.6 | S 3.32 | Y 2.25 | W 2.94
H22: T 2.83 | V 2.67 | M 3.59 | N 2.9 | I 3.1 | S 2.34 | Q 2.78 | W 3.16 | G 2.96 | F 2.02 | D 2.31 | A 2.56 | Y 2.93 | R 1.27 | E 2.89 | P 2.51 | K 2.06 | L 3.61 | C 3.5
F23: A 3.02 | M 3.51 | I 2.79 | N 1.99 | G 2.05 | D 1.95 | W 3.34 | Q 1.79 | T 1.91 | V 1.99 | H 2.91 | P 2.96 | E 2.1 | K 1.94 | S 2.72 | Y 2.94
L24: G 2.88 | K 2.93 | Y 3.97 | Q 2.64 | S 1.09 | V 1.91 | W 1.58 | F 3.56 | N 3.3 | R 2.28 | D 1.92 | C 2.68 | E 1.77 | M 2.98 | T 2.47 | I 3.37 | A 2.74 | P 2.46 | H 2.63
F17: W 1.45 | Y 3.26
F19: Q 1.63 | G 2.62 | S 2.56 | N 2.33 | L 2.82 | P 1.88 | T 2.52 | C 2.77 | W 2.32 | Y 2.82 | R 2.66 | E 1.77 | I 2.85 | K 1.82 | D 2.38 | V 2.15 | M 1.69 | A 2.16 | H 3.04
S20: N 2.94 | P 2.34 | E 2.51 | Q 2.88 | V 2.54 | Y 2.36 | C 2.69 | G 2.99 | A 1.09 | K 2.04 | L 2.94 | M 2.56 | W 2.06 | T 2.67 | I 2.07 | F 2.6 | R 3.76 | D 1.98
